Here are results for two proteins from patent publication US20160024487.

For data set [1], the target named is T1, Lys(Dnp)-ATNATVSPRIVGG-Lys(Abz).
T1 chain: KATNATVSPRIVGGK

In data set [2] the target is T2, Lys(Dnp)-ATNATINPRIVGG-Lys(Abz).
T2 chain: KATNATINPRIVGGK

Data set [3] concerns the target T3, Lys(Dnp)-ATNATERPRIVGG-Lys(Abz).
T3 chain: KATNATERPRIVGGK

Data set [4] concerns the target T4, Lys(Dnp)-ATNATTDPRIVGG-Lys(Abz).
T4 chain: KATNATTDPRIVGGK

Data set [5] deals with T5, Lys(Dnp)-ATNATRKPRIVGG-Lys(Abz).
T5 chain: KATNATRKPRIVGGK

For data set [6], the target named is T6, Lys(Dnp)-ATNATHEPRIVGG-Lys(Abz).
T6 chain: KATNATHEPRIVGGK

Data set [7] addresses T7, Lys(Dnp)-ATNATLGPRIVGG-Lys(Abz).
T7 chain: KATNATLGPRIVGGK

B1: Human plasma purified Factor Xa (protein)
chain 1: ANSFLEEMKKGHLERECMEETCSYEEAREVFEDSDKTNEFWNKYKDGDQCETSPCQNQGKCKDGLGEYTCTCLEGFEGKNCELFTRKLCSLDNGDCDQFCHEEQNSVVCSCARGYTLADNGKACIPTGPYPCGKQTLER
chain 2: IVGGQECKDGECPWQALLINEENEGFCGGTILSEFYILTAAHCLYQAKRFKVRVGDRNTEQEEGGEAVHEVEVVIKHNRFTKETYDFDIAVLRLKTPITFRMNVAPACLPERDWAESTLMTQKTGIVSGFGRTHEKGRQSTRLKMLEVPYVDRNSCKLSSSFIITQNMFCAGYDTKQEDACQGDSGGPHVTRFKDTYFVTGIVSWGEGCARKGKYGIYTKVTAFLKWIDRSMKTRGLPKAKSHAPEVITSSPLK
Protein B1 gave an FXa kcat/KM in data set [1] of 88 M⁻¹ s⁻¹.

B2: Human plasma purified Factor Xa (Molecular Innovations, Inc) (protein)
chain 1: B1 chain 1
chain 2: B1 chain 2
As for B2, the FXa kcat/KM in data set [2] is 870 M⁻¹ s⁻¹; in data set [3] it was 300 M⁻¹ s⁻¹; in data set [4] it was 11 M⁻¹ s⁻¹; in data set [5] it was 640 M⁻¹ s⁻¹; in data set [6] it was 96 M⁻¹ s⁻¹; in data set [7], 140 M⁻¹ s⁻¹.
